Target: GLS1 (endogenous; both KGA and GAC, not told apart) (UniProt D3Z7P3)
Experiment: IP of endogenous GLS1, PDZD8 blot
Settings: reference: wild-type PDZD8, glucose-starved cells; sites T527

PDZD8 (from UniProt Q8NEN9) PDZD8-T527A, glucose-starved cells
binding against the reference: weaker
